Measured values from patent US6902918B1, “Oxygenase enzymes and screening method” (California Institute of Technology, priority 1998, dated 2005).

How the values were obtained:
[1] = Whole cell naphthalene hydroxylation assay, P450cam in E. coli with added HRP, 96-well plate; assay type: cell-based; conditions: TB and 1.3 mM ALA, 100 μL volume
[2] = Fluorescence image analysis of colonies on agar plates with naphthalene and hydrogen peroxide; assay type: cell-based, E. coli BL21(DE3); conditions: naphthalene as substrate
[3] = assay type: cell-based, E. coli; conditions: for Relative rate towards naphthalene (generation of fluorescence per time): whole cells, 96-well plate
[4] = 96-well plate whole cell assay of P450cam variants, generation of fluorescence per time, 3-phenylpropionate; assay type: cell-based, E. coli; conditions: for Relative rate towards 3-phenylpropionate (generation of fluorescence per time): whole cells, 96-well plate
Method: (§1) For the microtitre plate assay, the cells (grown in 4 ml TB/amp (100 ug/ml) media) were centrifuged for 10 min at 4° C. After the supernatant solution was removed, the harvested cells were carefully resuspended in 1 ml buffer solution (dibasic phosphate, 100 mM, pH 9.0). Then, 20 μl aliquots were placed into a Nunc fluorescence microplate. The total 180 μl reaction mixture was made up of 100 μl dibasic sodium phosphate buffer (100 mM, pH9.0), 20 μl ethanol, 10 μl substrate stock (4.5 mM coumarin in 10% ethanol, or 2 mM 3-phenylpropionate in 10% ethanol, 2 mM naphthalene in pure ethanol), and 10 μl hydrogen peroxide stock solution (50 mM H2O2 stock). The other reaction conditions are those described in EXAMPLE 2. The fluorescence was measured as a function of time, and the relative rates presented in Table 2 are the slopes of that measurement (RFU/min).

[5] = 96-well plate whole cell assay of P450cam variants, generation of fluorescence per time, coumarin; assay type: cell-based, E. coli; conditions: whole cells
Method: as §1

[6] = Colorimetric coupling of naphthol by laccase or HRP in cell solutions; assay type: biochemical; conditions: 1-naphthol 100 uM
Method: Laccase was purchased from Sigma Chemicals as a crude acetone powder from the […] Rhus vernificera. […] Type II HRP (RZ approximately 2.0) and all other chemicals were purchased from Sigma. Fluorescence readings were taken with a Perkin-Elmer HTS 7000 plate reading fluorimeter. Excitation and emission wavelengths were 360 nm and 465 nm, respectively.
Experiments were performed at 25° C. in the wells of opaque, white Nunc 96-well plates with a total liquid of 200 uL. Except where stated otherwise, each well contained 10% pure ethanol to improve the solubility of substrates and products. Where HRP was used for comparison, approximately 2.3 units of HRP and 5 mM H2O2 were in each well. […] Tris buffer was not used because it increases background fluorescence. Except where stated, results are given from conditions at pH 9.0, which were either the best results or barely distinguishable from the other conditions.
In order to evaluate laccase in a useful whole cell assay to identify the formation of hydroxylated aromatic compounds by oxidative enzymes (such as cytochrome P450cam and toluene dioxygenase), laccase was added to solutions containing cells, naphthalene, and naphthol. P450cam was expressed in E. coli strain BL21(DE3) using plasmid pCWori+. BL21(DE3) cells with and without the expressed protein were grown in Terrific Broth and after 8 hours were induced with 1 mM IPTG for 24 hours. […]

[7] = HRP peroxidase activity test with ABTS and H2O2, expression in E. coli; assay type: cell-based, E. coli BL21(DE3)
Method: The PCR products were ligated back into the pET-22b(+) vector which was transformed into the BL21(DE3) cells by electroporation. Cell growth and expression was carried out in either 96-well or 384-well microplates in LB medium at 30° C. Peroxidase activity tests were performed with H2O2 and ABTS (32).
IPTG was omitted in all HRP expression experiments, unless otherwise specified. Peroxidase activity tests for HRP were performed with a classical peroxidase assay, ABTS and hydrogen peroxide (26). Fifteen μl of cell suspension was mixed with 140 μl of ABTS/H2O2 (2.9 mM ABTS, 0.5 mM H2O2, pH 4.5) in microplates, and the activity was determined with a SpectraMax plate reader (Molecular Devices, Sunnyvale, Calif.) at 25° C. A unit of HRP is defined as the amount of enzyme that oxidizes 1 μmole of ABTS per min at the assay conditions.

[8] = ABTS assay; reported by Sigma; cited from earlier work
[9] = Stability of mutant HRP at 4° C.

B1: WT: native cytochrome P450cam monooxygenase of P. putida, SEQ. ID. NO. 2 (protein)
chain: TTETIQSNANLAPLPPHVPEHLVFDFDMYNPSNLSAGVQEAWAVLQESNVPDLVWTRCNGGHWIATRGQLIREAYEDYRHFSSECPFIPREAGEAYDFIPTSMDPPEQRQFRALANQVVGMPVVDKLENRIQELACSLIESLRPQGQCNFTEDYAEPFPIRIFMLLAGLPEEDIPHLKYLTDQMTRPDGSMTFAEAKEALYDYLIPIIEQRRQKPGTDAISIVANGQVNGRPITSDEAKRMCGLLLVGGLDTVVNFLSFSMEFLAKSPEHRQELIERPERIPAACEELLRRFSLVADGRILTSDYEFHGVQLKKGDQILLPQMLSGLDERENACPMHVDFSRQKVSHTTFGHGSHLCLGQHLARREIIVTLKEWLTRIPDFSIAPGAQIQHKSGIVSGVQALPLVWDPATTKAV
modifications: P. Putida
- total activity (whole cell naphthalene hydroxylation) [1]: 430 RFU/min
- colony fluorescence in digital scan [2]: ~320 fluorescence units

B2: M7-8H (protein)
chain: TTETIQSNANLAPLPPHVPEHLVFDFDMYNPSNLSAGVQEAWAVLQESNVPDLVWTRCNGGHWIATRGQLIREAYEDYRHFSSECPFIPREAGEAYDFIPTSMDPPEQRQFRALANQVVGMPVVDKLENRIQELACSLIESLRPQGQCNFTEDYAEPFPIRIFMLLAGLPEEDIPHLKYLTDQMTRPDGSMTFAEAKEALYDYLIPIIEQRRQKPGTDAISIVANGQVNGRPITSDEAKRMFGLLLVGGLDTVVNFLSFSMEFLAKSPEHRQELIERPERIPAACEELLRRFSLVADGRILTSDYEFHGVQLKKGDQILLPQMLSGLDERKNACPMHVDFSRQKVSHTTFGHGSHLCLGQHLARREIIVTLKEWLTRIPDFSIAPGAQIQHKSGIVSGVQALPLVWDPATTKAV
modifications: Mutant M7-8H
- Relative rate towards naphthalene (generation of fluorescence per time) [3]: 53.1 RFU/min
- Relative rate towards 3-phenylpropionate (generation of fluorescence per time) [4]: 35.4 RFU/min
- Relative rate towards coumarin (generation of fluorescence per time) [5]: 12.8 RFU/min

B3: M7-6H (protein)
chain: TTETIQSNANLAPLPPHVPEHLVFDFDMYNPSNLSAGVQEAWAVLQESNVPDLVWTRCNGGHWIATRGQLIREAYEDYRHFSSECPFIPREAGEAYDFIPTSMDPPEQRQFRALANQVVGMPVVDKLENRIQELACSLIESLRPQGQCNFTEDYAEPFPIRIFMLLAGLPEEDIPHLKYLTDQMTRPDGSMTFAEAKEALYDYLIPIIEQRRQKPGTDAISIVANGQVNGRPITSDEAKRMCGLLLVGGLDTVVNFLSFSMEFLAKSPEHRQELIERPELIPAACEELLRRFSLVADGRILTSDYEFHGVQLKKGDQILLPQMLSGLDERKNACPMHVDFSRQKVSHTTFGHGSHLCLGQHLARREIIVTLKEWLTRIPDFSIAPGAQIQHKSGIVSGVQALPLVWDPATTKAV
modifications: Mutant M7-6H
- increased activity over the wild type, naphthalene hydroxylation ([3]; from Table 2 data): 9.4 fold
- Relative rate towards naphthalene (generation of fluorescence per time) [3]: 86.7 RFU/min
- increase in activity on 3-phenylpropionate compared to wild-type ([4]; another series of experiments): 3.2 fold
- Relative rate towards 3-phenylpropionate (generation of fluorescence per time) [4]: 43.6 RFU/min
- Relative rate towards coumarin (generation of fluorescence per time) [5]: 14.1 RFU/min

B4: M7-4H (protein)
chain: TTETIQSNANLAPLPPHVPEHLVFDFDMYNPSNLSAGVQEAWAVLQESNVPDLVWTRCNGGHWIATRGQLIREAYEDYRHFSSECPFIPREAGEAYDFIPTSMDPPEQRQFRALANQVVGMPVVDKLENRIQELACSLIESLRPQGQCNFTEDYAEPFPIRIFMLLAGLPEEDIPHLKYLTDQMTRPDGSMTFAEAKEALYDYLIPIIEQRRQKPGTDAISIVANGQVNGRPITSDEAKRMCGLLLVGGLDTVVNFLSFSMEFLAKSPEHRQELIERPERIPAACEELLRRFSLVADGRILTSDYEFHGVQLKKGDQILLPQMLSGLDERKNACPMHVDFSRQKVSHTTFGHGSHLCLGQHLARREIIVTLKEWLTRIPDFSIAPGAQIQHKSGIVSGVQALPLVWDPATTKAV
modifications: Mutant M7-4H
- Relative rate towards naphthalene (generation of fluorescence per time) [3]: 84.1 RFU/min
- Relative rate towards 3-phenylpropionate (generation of fluorescence per time) [4]: 42.8 RFU/min
- Relative rate towards coumarin (generation of fluorescence per time) [5]: 11.5 RFU/min

B5: HRP: horseradish peroxidase; purchased from Sigma (type II) or expressed from synthetic gene in pETpelBHRP (protein, listed as Escherichia coli)
chain: MQLTPTFYDNSCPNVSNIVRDTIVNELRSDPRIAASILRLHFHDCFVNGCDASILLDNTTSFRTEKDAFGNANSARGFPVIDRMKAAVESACPRTVSCADLLTIAAQQSVTLAGGPSWRVPLGRRDSLQAFLDLANANLPAPFFTLPQLKDSFRNVGLNRSSDLVALSGGHTFGKNQCRFIMDRLYNFSNTGLPDPTLNTTYLQTLRGLCPLNGNLSALVDFDLRTPTIFDNKYYVNLEEQKGLIQSDQELFSSPDATDTIPLVRSFANSTQTFFNAFVEAMDRMGNITPLTGTQGQIRLNCRVVNSNS
- time for color change from light yellow to dark brown [6]: approximately 1 minute
- peroxidase activity in cells induced with IPTG ([7]; 1 mM IPTG): no peroxidase activity above background
- activity against ABTS in cells not induced with IPTG ([7]; no IPTG): weak but measurable activity
- total activity of 1 mg of highly purified HRP [8]: 1,000 units

B6: HRP1A6: horseradish peroxidase mutant, Asn255 changed to Asp, SEQ. ID. NO. 17 (protein, listed as Escherichia coli)
chain: MQLTPTFYDNSCPNVSNIVRDTIVNELRSDPRIAASILRLHFHDCFVNGCDASILLDNTTSFRTEKDAFGNANSARGFPVIDRMKAAVESACPRTVSCADLLTIAAQQSVTLAGGPSWRVPLGRRDSLQAFLDLANANLPAPFFTLPQLKDSFRNVGLNRSSDLVALSGGHTFGKNQCRFIMDRLYNFSNTGLPDPTLNTTYLQTLRGLCPLNGNLSALVDFDLRTPTIFDNKYYVNLEEQKGLIQSDQELFSSPDATDTIPLVRSFANSTQTFFNAFVEAMDRMGNITPLTGTQGQIRLNCRVVNSNS
- total activity ([7]; ABTS assay): greater than 100 units/L
- peroxidase activity on addition of IPTG ([7]; as little as 5 μM of IPTG added): markedly decreased activity
- concentration of active HRP ([7]; estimated from ABTS activity): ~100 µg/L
- higher peroxidase activity than the parent clone ([7]; first generation, no IPTG added): 10-14 fold
- share of HRP activity found in the LB culture medium ([7]; judged by the ABTS activity): greater than 95%
- stability [9]: stable for up to a week
